Test results as given in PMC4169075.

biological target: GABAA receptor β2 subunit, FLAG-tagged (β2^FLAG) (human) (UniProt P47870); test: co-IP

Row | amount associated with β2^FLAG relative to wildtype γ2L^HA | Substance
1 | 0.94 | GABAA receptor γ2L(N79S) subunit, HA-tagged (γ2L(N79S)^HA)
2 | 0.71 | GABAA receptor γ2L(P83S) subunit, HA-tagged (γ2L(P83S)^HA)
3 | 0.47 | GABAA receptor γ2L(R82Q) subunit, HA-tagged (γ2L(R82Q)^HA)
